Experimental data from the nanobody polyreactivity screen of Harvey et al. (2022).

Experiment: yeast display, Sf9 membrane polyspecificity reagent, FACS + sequencing; frameworks hold sequencing errors
In short: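 Using colony PCR, genes from sorted yeast display clones were amplified, then sequenced on MiSeq at 2 × 250 and filtered by CDR length. The clones had been stained with 10% biotinylated, detergent-solubilized Sf9 membrane reagent for 1 hour at 4 °C and sorted by FACS into low and high (top ~1%) gates on anti-HA and streptavidin fluorescence. Polyreactivity labels come from the gate of origin.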

Row | Sequence | polyreactivity (PSR sort gate)
1 | QVQLVESGGGLVQAGGSLRLSCAASGSTFLNYAMGWYRQAPGKERELVAAISFSGGRTYYADSVKGRFTISRDNAKNTVFLQMNSLKPEDTAVYYCAARGSYAYYRGQGTQVTVSS | high polyreactivity
2 | QVQLVESGGGLVQAGGSLRLSCAASGSIFSPNDMGWYRQAPGKERELVAAITTAGSTYYADSVKGRFTISRDTAKNTVYLQMNSLKPEDTAVYYCAATYISVTDYAYFPLWYGYWGEGTQVTVSS | low polyreactivity
3 | QVQLVESGGGLVQAGGRLRLSCAASGRTFAVYDMGWYIQAPGKERELVAAITYGGGRTYYADSVKGRFTISRDYAKNTVYLQMISLKPEDTSVYYCAADYYGTDYDYWGQGTQVTVSS | low polyreactivity
4 | QVQLVESGRGLDQAGGSLRLSCAASGSIIGANAMGWYRQAPGKERELVAAITDNTSTTFYADSVKGRFTISRDNAKNTVYLQMNSLKPEDTAVYYCNADRAVVLSTTVWGEYDYWGQGTQVTVSS | low polyreactivity
5 | QVQLVESGGGLVKAGGSLRLSCAASGITCTKNAMGWYRQAPGKERELVAAISTSGGSTYYADSVKGRFTISRDTAKNTVYLQMTSLKPEDTAVYYCAARAVIRGGRYFYWGQGTLVTVSS | high polyreactivity
6 | LVQHVESGGGLVQAGGSLRLNCAASGRTFKPYAMGWYIQSPGKERELVAAISTRGGSTYYADSVKGRFTISRDNAKNSVFLQMNSLKPEDTALFYCAATQPGRDYDYWGQGTQVTVSS | low polyreactivity
7 | QVQLVESGGGLVQAGGSLRLSCAASGRTIGINAMGWYRQAPGKERELVAVISFGDGGTYYADSVKGRFTISRDNAKNTVYLQMNSLKPEDTEVYYCATDYQSTSVWGGHFVINPYDYWGQGTQVTVSS | low polyreactivity
8 | QVQLVESGGGLVQAGGSLRLSCDASGRNFRRNAMGWYRQAPGKERELVAAITGGGSTNYADSVKGRFTISRDNAKNTVYLQMNSLKPEDTAVYYCAARRYGVRTYRFDSWGQGTQVTVSS | high polyreactivity
9 | HVQLVESGGGLVQAGGSLRLSCAASGFIFPENAMGWYRQAPGKERELVAAIRTGGSTYYADSVKGRFTISRDNAKNTVYLQMNSLKPEDTAVYYCAARFHYEKYSYWYFDEDYWGQGTQVTVSS | high polyreactivity
10 | QVQLVESGGGLVQAGGSLRLSCAASGRTITRNAMGWYRQAPGKERELVAAITTTGGSTYYADYVKGRFTISRDNAKNTVYLQMNSLKPEDNAVYYCNADWVGPFRRATNITTYFGYDYWGQGTQVTVSS | low polyreactivity
11 | QVQLVESGGGLVQAGGSLRLSCAASGLIFYDNMGGYRQAPGKERELVAAISSSGGSTSYADSVKGRFTISRDNAKNTVSLQMNSLNPEDSAVYYCTVSPGVWRSIPLYYNLLYGYWGQGTQVTVSS | low polyreactivity
12 | QVQLVESGGGLVQAGGSLRLSCAASGITFRYYVMGWYRQAPGKERELVASISWGGGSTYYADSVKGRFTISRDNAKNTVYLQMNSLKPEDTAVYYCAARVPRPSYRGMNYWGQGTQVTVSS | high polyreactivity
13 | QVQLVESGGGLVQAGGSLRLSCAASGSTFRDNSMGWYRQAPGKERELVASITKRGTSTYYADSVKGRFTISRDNAKNNVYLHMNSLKPEETSVYYCAVRRYGKTAGYDYWGQGTQVTVSS | low polyreactivity
14 | QVQIVESGGGLVQAGGSLRLSCAASGSTVQYYAMGWYRQAPGKERELVAAISYTGGSTYYADSVKARFTISRDNAKNSVYLEMSSLKPEDTAVYYCAAGRRGSDTGTEYYWGQGTQVTVSS | high polyreactivity
15 | QVPLVESGGGLVQAGGSLRLSCAASGITFYYYTMGWYIQAPGKERELVAGITRGGRRYDADSVKGRFTISRDNAKNPVYLQMNSLKPEDTAVYYCNADDDIQYKGRYNYWGQGTQVTVSS | low polyreactivity
16 | QVQLVESGGGLVQAGGSLRLSCAASGRIFRYNAMGWYRQAPGKERELVAAITKGGGSTYYADSVKGRFTISRDNAKNTVYLQMTSLNPEDTGVYYCAARRAVYRGNYWGQGTKVTVSS | high polyreactivity
17 | QVQLVESGGGLVLAGGSLRLSCASSGRTFPSYAKGWYRQAPGKERELVAAITRGGSTNYADSVKGRFTISRDNAKNTVYLQMNSLKPEDTAVYYCAAARWRWQLARDDYWGQGTQVTVSS | high polyreactivity
18 | QVQLVESGGGLVQAGGSLRLSCAASGFIFTFYAMGWYRQEPGKEREFVASIDWGDGSTYYADSVKGRFTISRDNAKNTVYLQMNSLKPEDTAVYYCAHDYDGYVWDTEYDYWGQGTQVTVSS | low polyreactivity
19 | QVQLVESGGGLVQAGGSLRLSCAASGRIFGTYAMGWYRQAPGKERELVAAITSGGRTYYADSVKGRFTISRDNAKNTVYLQMNSLKPEDTAVYYCNAVRYYVYDRRFNYWGQGTQVTVSS | high polyreactivity
20 | QVQLVESGGGLVQAGGSLRLSCAASGRIFGINAMGWYRQGPGKERELVAASRSSDVSTYNADSVKGRFTISRDNAKNTVYLQMNSLKPEDTAVYYCAAAYRTQIYRNEYWGQGTQVTVSS | low polyreactivity
21 | QVQLVESGGGLVQAGGSLRLSCAASGSIFNYNMGLYRQAPGKERELVAAVSTNYADSVKGRFTISRDNAKNTVYLQMNSLKPEDYAVYYCGVTPEKSGDEYDNWGQGTQVTVSS | low polyreactivity
